Read-outs that look alike come from different tables or passages of the source.

Experiment [1] addresses KS-PPT di-domain construct of the S. cerevisiae FAS α-chain (S. cerevisiae). Put plainly: SEC. (In general: In gel filtration, larger molecules generally elute earlier.)
The target is the same in experiment [2]. Description: SEC. The source holds these as a separate data set.

Broadly, the stoichiometry N is the number of molecules, sites or subunits per partner or assembly. Consider “KS-PPT di-domain construct of the S. cerevisiae FAS α-chain (domain or fragment)”, for which the stoichiometry N was found to be 2 in experiment [1] and 2.5 in experiment [2].

The values are drawn from doi:10.1101/336578.
